{
  "source": "the RNAGym collection of RNA variant scans (doi:10.7554/elife.90254)",
  "parents": {"B1": {"name": "OR4K15 (parent)", "chain": "GUUAACGGUCAUAGGCCAUGGAAACUAGGAGCACCAUUUCGCUGCCAGUGAAGAAAUGAACAAAGAAAAUCUGGGCCAGGCAGGCAUCAAAAGAAAUAGUCUUGCGCUCAACCAGAAAGUCUGUAAUCAUUUUAAGGGUA"}},
  "data": [
    {"variants_of": "B1", "test": "self-cleavage, relative activity (ratio to wild type); higher = more cleavage; in vitro, sequencing; the parent is a self-cleaving ribozyme", "values": [
      {"variant": "U12C G31U", "self-cleavage": 1.48},
      {"variant": "U72G A135C", "self-cleavage": 0.33},
      {"variant": "U43C C105A", "self-cleavage": 0.02},
      {"variant": "A64G U70C", "self-cleavage": 0.57},
      {"variant": "C6U C45A", "self-cleavage": 1.31},
      {"variant": "A55G A111U", "self-cleavage": 0.21},
      {"variant": "A18U A69G", "self-cleavage": 1.92},
      {"variant": "A68U A82G", "self-cleavage": 0.75},
      {"variant": "U49C A91G", "self-cleavage": 0.77},
      {"variant": "A67G A111G", "self-cleavage": 0.02},
      {"variant": "A111G A134U", "self-cleavage": 0.02},
      {"variant": "C16U A55G", "self-cleavage": 1.63},
      {"variant": "A51G A129U", "self-cleavage": 0.76},
      {"variant": "A5G A114G", "self-cleavage": 0.41},
      {"variant": "U102C", "self-cleavage": 1.82},
      {"variant": "A18U A89C", "self-cleavage": 0.9},
      {"variant": "U72C A92G", "self-cleavage": 0.21},
      {"variant": "U3C U26C", "self-cleavage": 1.29},
      {"variant": "U39A U43A", "self-cleavage": 1.66},
      {"variant": "A64G G123A", "self-cleavage": 1.66},
      {"variant": "U19C U87C", "self-cleavage": 1.52},
      {"variant": "U108A A135U", "self-cleavage": 0.02},
      {"variant": "G48A A63G", "self-cleavage": 0.93},
      {"variant": "A89G C113G", "self-cleavage": 0.01},
      {"variant": "A51C A94G", "self-cleavage": 2.16},
      {"variant": "U100C A118U", "self-cleavage": 0.77},
      {"variant": "A66G U108A", "self-cleavage": 0.02},
      {"variant": "U120C A134G", "self-cleavage": 1.3},
      {"variant": "G65A A78G", "self-cleavage": 0.2},
      {"variant": "C101U U131C", "self-cleavage": 0.27},
      {"variant": "A67G A91U", "self-cleavage": 0.99},
      {"variant": "A4G U9C", "self-cleavage": 1.33},
      {"variant": "A69C", "self-cleavage": 1.05},
      {"variant": "A22G A89G", "self-cleavage": 0.62},
      {"variant": "A47G U122C", "self-cleavage": 0.62},
      {"variant": "G21A A86U", "self-cleavage": 2.01},
      {"variant": "U9C U87G", "self-cleavage": 0.69},
      {"variant": "G44A A134G", "self-cleavage": 1.84},
      {"variant": "C17A A135C", "self-cleavage": 1.23},
      {"variant": "A54U U133C", "self-cleavage": 2.23},
      {"variant": "G29A A33G", "self-cleavage": 0.88},
      {"variant": "G14U U38C", "self-cleavage": 0.66},
      {"variant": "A36U A51G", "self-cleavage": 1.82},
      {"variant": "U103C A125U", "self-cleavage": 1.45},
      {"variant": "A30G G119A", "self-cleavage": 2.01},
      {"variant": "U49A A98U", "self-cleavage": 0.26},
      {"variant": "A63G A110G", "self-cleavage": 0.15},
      {"variant": "U122C G137C", "self-cleavage": 1.67},
      {"variant": "A66U U130C", "self-cleavage": 1.34},
      {"variant": "A82G A125G", "self-cleavage": 0.23},
      {"variant": "C10U U38A", "self-cleavage": 0.84},
      {"variant": "G53A A54U", "self-cleavage": 1.67},
      {"variant": "A64U A140G", "self-cleavage": 1.39},
      {"variant": "U2G A92G", "self-cleavage": 0.73},
      {"variant": "C17A U19C", "self-cleavage": 0.87},
      {"variant": "A11U A135U", "self-cleavage": 0.98},
      {"variant": "A89G C107U", "self-cleavage": 0},
      {"variant": "A54U A82C", "self-cleavage": 0.13},
      {"variant": "U3C U120C", "self-cleavage": 1.42},
      {"variant": "U2C A117G", "self-cleavage": 1.33},
      {"variant": "U9A U122G", "self-cleavage": 2.09},
      {"variant": "U87G U132C", "self-cleavage": 0.88},
      {"variant": "U70A C105U", "self-cleavage": 0.16},
      {"variant": "U72A A114C", "self-cleavage": 0.06},
      {"variant": "A55G U130C", "self-cleavage": 0.96},
      {"variant": "G80U U100C", "self-cleavage": 0.16},
      {"variant": "A22G A60U", "self-cleavage": 0.77},
      {"variant": "U124C A129G", "self-cleavage": 0.8},
      {"variant": "U38C A69G", "self-cleavage": 0.88},
      {"variant": "A64U A82U", "self-cleavage": 0.19},
      {"variant": "A30U A68G", "self-cleavage": 1.62},
      {"variant": "A51G A140U", "self-cleavage": 1.35},
      {"variant": "A94G A117G", "self-cleavage": 1.92},
      {"variant": "A62U G74A", "self-cleavage": 0.41},
      {"variant": "U2C A125G", "self-cleavage": 0.55},
      {"variant": "U19A G31A", "self-cleavage": 1.02},
      {"variant": "C46U C113A", "self-cleavage": 0.01},
      {"variant": "G50A U100C", "self-cleavage": 2.01},
      {"variant": "U43C C109A", "self-cleavage": 0.36},
      {"variant": "C17U U132C", "self-cleavage": 1.02},
      {"variant": "G15A A95G", "self-cleavage": 1.73},
      {"variant": "A11G G58U", "self-cleavage": 0.79},
      {"variant": "U57C U103A", "self-cleavage": 0.15},
      {"variant": "A66G A69C", "self-cleavage": 1.67},
      {"variant": "U37C G106A", "self-cleavage": 0.01},
      {"variant": "A60U G79U", "self-cleavage": 0.08},
      {"variant": "A98U U124C", "self-cleavage": 2.17},
      {"variant": "U3C U9C", "self-cleavage": 1.36},
      {"variant": "A78G U100G", "self-cleavage": 0.35},
      {"variant": "G65U A111G", "self-cleavage": 0.06},
      {"variant": "U26A A117G", "self-cleavage": 1.78},
      {"variant": "U57A U97C", "self-cleavage": 1.78},
      {"variant": "A90U A91G", "self-cleavage": 1.95},
      {"variant": "G31A", "self-cleavage": 1.52},
      {"variant": "A64G C77U", "self-cleavage": 1.43},
      {"variant": "A92G C109U", "self-cleavage": 0.59},
      {"variant": "A59U A134G", "self-cleavage": 1.02},
      {"variant": "A11C U131C", "self-cleavage": 0.89},
      {"variant": "A67G U122A", "self-cleavage": 0.99},
      {"variant": "G7A A63G", "self-cleavage": 1.86},
      {"variant": "U9A U120A", "self-cleavage": 1.36},
      {"variant": "A18U U49G", "self-cleavage": 1.01},
      {"variant": "A86G A125U", "self-cleavage": 0.14},
      {"variant": "U26C A140U", "self-cleavage": 0.35},
      {"variant": "C61U A98G", "self-cleavage": 0.45},
      {"variant": "U19A A51G", "self-cleavage": 1.36},
      {"variant": "A24U U108C", "self-cleavage": 0.02},
      {"variant": "A96G U100C", "self-cleavage": 2.42},
      {"variant": "U49A A90U", "self-cleavage": 1.26},
      {"variant": "A11G G48A", "self-cleavage": 1.9},
      {"variant": "A68C U130A", "self-cleavage": 0.98},
      {"variant": "A86G U87A", "self-cleavage": 1.4},
      {"variant": "A11G G115U", "self-cleavage": 0.27},
      {"variant": "U19C U122C", "self-cleavage": 0.46},
      {"variant": "A4U U70C", "self-cleavage": 0.89},
      {"variant": "C10A U37C", "self-cleavage": 1},
      {"variant": "A54C A118G", "self-cleavage": 1.49},
      {"variant": "A24G A59C", "self-cleavage": 0},
      {"variant": "A27G U139C", "self-cleavage": 1.05},
      {"variant": "A89G A91G", "self-cleavage": 1.49},
      {"variant": "U2C U70G", "self-cleavage": 1.51},
      {"variant": "A22G A24C", "self-cleavage": 0.56},
      {"variant": "U49C A62U", "self-cleavage": 0.68},
      {"variant": "G75C A116G", "self-cleavage": 0.05},
      {"variant": "U3C A96U", "self-cleavage": 1.02},
      {"variant": "U37C A59G", "self-cleavage": 1.72},
      {"variant": "A64U A126G", "self-cleavage": 1.12},
      {"variant": "A67G A98G", "self-cleavage": 0.36},
      {"variant": "A64G G75U", "self-cleavage": 0.12},
      {"variant": "A68U A96G", "self-cleavage": 1.98},
      {"variant": "C61U A116G", "self-cleavage": 0.39},
      {"variant": "A69U A110G", "self-cleavage": 0.09},
      {"variant": "A63U U72C", "self-cleavage": 0.41},
      {"variant": "A11G A69U", "self-cleavage": 1},
      {"variant": "U70C U120C", "self-cleavage": 0.25},
      {"variant": "U39C C40U", "self-cleavage": 1.54},
      {"variant": "A67G A86U", "self-cleavage": 2.13},
      {"variant": "U2A U100C", "self-cleavage": 0.89},
      {"variant": "A23G A66U", "self-cleavage": 1.43},
      {"variant": "A4G U49A", "self-cleavage": 0.8},
      {"variant": "A56U A68G", "self-cleavage": 0.34},
      {"variant": "C76A A110G", "self-cleavage": 0.05},
      {"variant": "U2C U57C", "self-cleavage": 0.75},
      {"variant": "A92C U132C", "self-cleavage": 1.05},
      {"variant": "C109A A114G", "self-cleavage": 0.11},
      {"variant": "A69G C112U", "self-cleavage": 0.01},
      {"variant": "G15A A68G", "self-cleavage": 1.73},
      {"variant": "G21C C61U", "self-cleavage": 0.94},
      {"variant": "A63G A116C", "self-cleavage": 0.13},
      {"variant": "G99U A129G", "self-cleavage": 0.13},
      {"variant": "A24U A67U", "self-cleavage": 1.89},
      {"variant": "A27G A36U", "self-cleavage": 0.85},
      {"variant": "A23G U100C", "self-cleavage": 1.72},
      {"variant": "A94U A129U", "self-cleavage": 1.22},
      {"variant": "A59G A68U", "self-cleavage": 1.91},
      {"variant": "A66U C81U", "self-cleavage": 0.05},
      {"variant": "U43A A118U", "self-cleavage": 0.9},
      {"variant": "C35U A98U", "self-cleavage": 1.52},
      {"variant": "C76U A140G", "self-cleavage": 0.12},
      {"variant": "A62U A78G", "self-cleavage": 0.28},
      {"variant": "U19C U130C", "self-cleavage": 0.31},
      {"variant": "A11C A86G", "self-cleavage": 1.7},
      {"variant": "A22G A55G", "self-cleavage": 1.16},
      {"variant": "U103C", "self-cleavage": 0.7},
      {"variant": "A52U A54U", "self-cleavage": 1.62},
      {"variant": "U100C U131C", "self-cleavage": 2.14},
      {"variant": "U108A A116U", "self-cleavage": 0.02}
    ]}
  ]
}
